In patent US9504755B2, “Multi-arm polymeric alkanoate conjugates” (Nektar Therapeutics, priority 2008, dated 2016):
“And” between values parts separate entries of the source, which are not always exact repeats. Equal entries are not always repeated. Marks after values point to notes of the source that are not given here.

Tests used:
LS174T tumors = experiment: Anti-tumor activity in LS174T colorectal mouse xenograft model; assay type: in vivo
Method: (§1) H460, LS174T and LoVo tumors were established in female athymic nude mice. Groups of 10 mice received a total of three single doses of 4-ARM-PEG20K-BA-DOC or docetaxel administered every 7 days (q7d×3) at several doses up to a maximum tolerated dose (MTD). Control groups received no treatment after tumor implant. Animals were weighed daily for the first five days and twice weekly thereafter. Tumor volumes were measured twice weekly after the first drug injection.
(§2) Anti-tumor activity was measured as changes in tumor volume, time to reach endpoint, and complete or partial tumor regression.
(§3) Treatment outcome was evaluated by Tumor Growth Delay (TGD), which is defined as the increase in median time to endpoint in a treatment group compared to the control group. Here it is expressed as % TGD, as a percentage to the median time to endpoint of the control group.
(§4) A tumor whose volume was reduced to 50% or less for three consecutive measurements compared to its volume on Day 1 was considered to be in partial regression. Complete regression was defined as volume […] 13.5 mm^3 for three consecutive measurements.
(§5) Acceptable toxicity was defined as a group mean body weight (BW) loss of less than 20% during the study and not more than one treatment-related death among ten treated animals.

H460 tumors = experiment: Anti-tumor activity in H460 non-small cell lung mouse xenograft model; assay type: in vivo
Method: as §1, §2, §3, §4, §5

LoVo tumors = experiment: Anti-tumor activity in LoVo colorectal mouse xenograft model; assay type: in vivo
Method: as §1, §2, §3, §4, §5

[1] = Pharmacokinetics after IV infusion in Beagle dogs; assay type: in vivo, dog
Method: The objective of the study was to assess the pharmacokinetics and excretion of docetaxel and 4-ARM-PEG20K-BA-docetaxel after intravenous infusion to dogs.
Pharmacokinetics were evaluated in male dogs (4 dogs/dose level) dosed with 0, 0.75, 2, or 4 mg/kg (0, 15, 40, and 80 mg/m^2/dose) of 4-ARM-PEG20K-BA-docetaxel or 0.75 mg/kg (15 mg/m^2) docetaxel. 4-ARM-PEG20K-BA-docetaxel and docetaxel were administered via a cephalic or saphenous vein disposable catheter as 60-min intravenous infusions at 4 mL/kg/hr. Seventeen blood samples were obtained by jugular venipuncture or Abbacoth IV catheter between 0 and 168 hr post-dose. Plasma concentrations of 4-ARM-PEG20K-BA-docetaxel and docetaxel were determined.

[2] = 16.9 mg/kg (50.7 mg/m^2), q7d×3
[3] = 22.5 mg/kg (67.5 mg/m^2), q7d×3
[4] = 30 mg/kg (90 mg/m^2), q7d×3 (MTD of docetaxel)
[5] = 40 mg/kg (120 mg/m^2), q7d×3 (MTD of 4-ARM-PEG20K-BA-DOC)
[6] = 18.7 mg/kg (56.1 mg/m^2), q7d×3
[7] = 25 mg/kg (75 mg/m^2), q7d×3 (MTD of docetaxel)
[8] = 33.3 mg/kg (99.9 mg/m^2), q7d×3
[9] = 40 mg/kg (120 mg/m^2), q7d×3 (exceeded MTD)
[10] = male dogs, average over 0.75, 2, 4 mg/kg
[11] = male dogs, single IV dose 0.75 mg/kg
[12] = male dogs, single IV dose 2 mg/kg
[13] = male dogs, single IV dose 4 mg/kg

Substance: 4-ARM-PEG20K-Butanoate-Linked Docetaxel Conjugate [4-ARM-PEG20K-BA-DOC]
- BW Loss (%) (LS174T tumors; [2]): 12.4%
- Day of BW Nadir (LS174T tumors; [2]): 23
- No. Surviving/No. Treated Mice (LS174T tumors; [2]): 9/10
- PR (partial regressions) (LS174T tumors; [2]): 0
- TGD (%) (LS174T tumors; [2]): 126* %
- BW Loss (%) (LS174T tumors; [3]): 11.1%
- Day of BW Nadir (LS174T tumors; [3]): 23
- No. Surviving/No. Treated Mice (LS174T tumors; [3]): 10/10
- PR (partial regressions) (LS174T tumors; [3]): 0
- TGD (%) (LS174T tumors; [3]): 169* %
- Day of BW Nadir (LS174T tumors; 30 mg/kg (90 mg/m^2), q7d×3): 23
- No. Surviving/No. Treated Mice (LS174T tumors; 30 mg/kg (90 mg/m^2), q7d×3): 9/10
- BW Loss (%) (LS174T tumors; [4]): 17.9%
- TGD (%) (LS174T tumors; [4]): 250%
- Day of BW Nadir (LS174T tumors; 40 mg/kg (120 mg/m^2), q7d×3): 23
- No. Surviving/No. Treated Mice (LS174T tumors; 40 mg/kg (120 mg/m^2), q7d×3): 10/10
- BW Loss (%) (LS174T tumors; [5]): 18.8%
- TGD (%) (LS174T tumors; [5]): 266%
- % TGD fold greater than for docetaxel (LS174T tumors; each at MTD): 1.6 fold
- BW Loss (%) (H460 tumors; 14 mg/kg (42 mg/m^2), q7d×3): 0/0%
- No. Surviving/No. Treated Mice (H460 tumors; 14 mg/kg (42 mg/m^2), q7d×3): 10/10
- TGD (%) (H460 tumors; 14 mg/kg (42 mg/m^2), q7d×3): −1%
- BW Loss (%) (H460 tumors; [6]): 6.2%
- Day of BW Nadir (H460 tumors; [6]): 22
- No. Surviving/No. Treated Mice (H460 tumors; [6]): 10/10
- TGD (%) (H460 tumors; [6]): 56* %
- Tumor growth delay (%) (H460 tumors; 19 mg/kg (58% MTD), q7d×3): 56%
- Day of BW Nadir (H460 tumors; 25 mg/kg (75 mg/m^2), q7d×3): 29
- No. Surviving/No. Treated Mice (H460 tumors; 25 mg/kg (75 mg/m^2), q7d×3): 10/10
- BW Loss (%) (H460 tumors; [7]): 10.4%
- TGD (%) (H460 tumors; [7]): 72** %
- Decrease in body weight (H460 tumors; 33 mg/kg (MTD)): 14.2%
- Tumor growth delay (%) (H460 tumors; 33 mg/kg (MTD), q7d×3): 122%
- BW Loss (%) (H460 tumors; [8]): 14.2%
- Day of BW Nadir (H460 tumors; [8]): 22
- No. Surviving/No. Treated Mice (H460 tumors; [8]): 10/10
- TGD (%) (H460 tumors; [8]): 122** %
- antitumor activity below MTD (H460 tumors; 4-ARM-PEG20K-BA-DOC at 19 mg/kg (58% of its MTD), docetaxel doses less than 25 mg/kg): retained significant antitumor activity
- % TGD fold greater than for docetaxel (H460 tumors; each at MTD): 2.5 fold
- BW Loss (%) (LoVo tumors; [2]): 7.0%
- Day of BW Nadir (LoVo tumors; [2]): 21
- No. Surviving/No. Treated Mice (LoVo tumors; [2]): 10/10
- PR (partial regressions) (LoVo tumors; [2]): 0
- TGD (%) (LoVo tumors; [2]): 64** %
- BW Loss (%) (LoVo tumors; [3]): 11.0%
- Day of BW Nadir (LoVo tumors; [3]): 24
- No. Surviving/No. Treated Mice (LoVo tumors; [3]): 10/10
- PR (partial regressions) (LoVo tumors; [3]): 0
- TGD (%) (LoVo tumors; [3]): 50* %
- BW Loss (%) (LoVo tumors; 30 mg/kg (90 mg/m^2), q7d×3): 16.2%
- Day of BW Nadir (LoVo tumors; 30 mg/kg (90 mg/m^2), q7d×3): 24
- No. Surviving/No. Treated Mice (LoVo tumors; 30 mg/kg (90 mg/m^2), q7d×3): 10/10
- PR (partial regressions) (LoVo tumors; 30 mg/kg (90 mg/m^2), q7d×3): 0
- TGD (%) (LoVo tumors; 30 mg/kg (90 mg/m^2), q7d×3 (MTD for both agents)): 128%
- Day of BW Nadir (LoVo tumors; 40 mg/kg (120 mg/m^2), q7d×3): 24
- No. Surviving/No. Treated Mice (LoVo tumors; 40 mg/kg (120 mg/m^2), q7d×3): 10/10
- BW Loss (%) (LoVo tumors; [9]): 22.6%
- TGD (%) (LoVo tumors; [9]): 148% and 148 ^1%
- plasma docetaxel AUC, fold lower than after docetaxel ([1]; dogs, equivalent dose levels of 0.75 mg/kg): ~7 fold
- CL, analyte conjugate, average (±SD) [1, 10]: 0.13 mL/min/kg
- T1/2, analyte conjugate, average (±SD) [1, 10]: 32 ± 4 h
- Vss, analyte conjugate, average (±SD) [1, 10]: 0.26 ± 0.04 L/kg
- T1/2, analyte conjugate, average (±SD) ([1]; male dogs, average over 0.75, 2, 4 mg/kg, listed as 4-ARM-PEG20K-BA-docetaxel): 31 h
- AUCinf, analyte conjugate [1, 11]: 104.247 µg·h/mL
- AUClast, analyte conjugate [1, 11]: 93.084 µg·h/mL
- AUClast, analyte docetaxel [1, 11]: 64 ng·h/mL
- CL, analyte conjugate [1, 11]: 0.12 mL/min/kg
- Cmax, analyte conjugate [1, 11]: 7084 ng/mL
- Cmax, analyte docetaxel [1, 11]: 2.1 ng/mL
- T1/2, analyte conjugate [1, 11]: 28 h
- Tmax, analyte conjugate [1, 11]: 1.1 h
- Tmax, analyte docetaxel [1, 11]: 0.88 h
- Vss, analyte conjugate [1, 11]: 0.23 L/kg
- AUCinf, analyte conjugate [1, 12]: 245.446 µg·h/mL
- AUClast, analyte conjugate [1, 12]: 232.378 µg·h/mL
- AUClast, analyte docetaxel [1, 12]: 153 ng·h/mL
- CL, analyte conjugate [1, 12]: 0.14 mL/min/kg
- Cmax, analyte conjugate [1, 12]: 17731 ng/mL
- Cmax, analyte docetaxel [1, 12]: 6.3 ng/mL
- T1/2, analyte conjugate [1, 12]: 35 h
- Tmax, analyte conjugate [1, 12]: 1.4 h
- Tmax, analyte docetaxel [1, 12]: 1.1 h
- Vss, analyte conjugate [1, 12]: 0.26 L/kg
- AUCinf, analyte conjugate [1, 13]: 611.47 µg·h/mL
- AUClast, analyte conjugate [1, 13]: 597.336 µg·h/mL
- AUClast, analyte docetaxel [1, 13]: 326 ng·h/mL
- CL, analyte conjugate [1, 13]: 0.12 mL/min/kg
- Cmax, analyte conjugate [1, 13]: 33570 ng/mL
- Cmax, analyte docetaxel [1, 13]: 19 ng/mL
- T1/2, analyte conjugate [1, 13]: 32 h
- Tmax, analyte conjugate [1, 13]: 6.8 h
- Tmax, analyte docetaxel [1, 13]: 12 h
- Vss, analyte conjugate [1, 13]: 0.31 L/kg
